The values below come from US12371675B2, “Process and microorganism for synthesis of adipic acid from carboxylic acids” (THE GOVERNING COUNCIL OF THE UNIVERSITY OF TORONTO, priority 2015, dated 2025).

This data set is described as follows: OYE hydrogenation activity screen, NADPH oxidation at 340 nm. The format is biochemical. The conditions noted are these: 1 mM substrate, 0.25 mM NADPH, 2.5 μg protein; cut-off 0.05 U/mg protein; ND = not detected. The procedure: 25 putative OYE genes (Table 1) were cloned based on the Pfam domain of the FMN oxidoreductase family PF00724. Purified OYEs were screened for hydrogenation activity against acrolein, 2-cyclohexn-1-one, cis,cis-muconic acid, trans,trans-muconic acid, and 2-hexendioic acid. Substrate specificity was measured spectrophotometrically in 96-well plates by following incubation for 20 min at room temperature in the anaerobic chamber. Buffers and reagents were also degassed and sparged with Ar. Reaction mixtures contained potassium phosphate (50 mM and pH 7.0), NaCl (10 mM), NADPH (0.25 mM), various substrates (1 mM) and protein (2.5 μg) in a final volume of 200 μL. Enzyme reactions were monitored by following the decrease in absorbance at 340 nm (ε340 nm=6,200/M·cm) as a measure of the conversion of the cofactor NADPH to NADP+.

B1: PA4356: OYE protein from Pseudomonas aeruginosa PAO1 (protein)
chain: MATLFDPIVLGDLELPNRIVMAPLTRCRADEGRVPNALMAEYYAQRADAGLILSEATAVTPMGVGYPDTPGIWSDDQVRGWSNVTKAVHAAGGRIFLQLWHVGRISDPLYLNGELPVAPSAIAAEGHVSLVRPKRPYVTPRALDTEEIADIVEAYRQGAERAKAAGFDGVEIHGANGYLLDQFLQDSTNKRTDRYGGSIENRARLLLEVTDAAISVWGAQRVGVHLAPRADSHDMGDSNRLETFSHVARELGKRGIAFICAREAQADDSIGVALKKAFGGPYIANEQFTLDSANAILAKGDADAVAFGVPFIANPDLVERLRQGAELNPPRPETFYTGGTEGYLDYPTLA
For B1, the “Activity [U/mg protein] 2-cyclohexen-1-one” value is “.15 U/mg protein”.

B2: PP0911: OYE protein from Pseudomonas putida KT2440 (protein)
chain: MTTLFDPIKLGDLQLPNRIIMAPLTRCRADEGRVPNALMAEYYVQRASAGLILSEATSVSPMGVGYPDTPGIWNDEQVRGWNNVTKAVHAAGGRIFLQLWHVGRISHPSYLNGELPVAPSAIQPKGHVSLVRPLSDYPTPRALETEEINDIVEAYRSGAENAKAAGFDGVEIHGANGYLLDQFLQSSTNQRTDRYGGSLENRARLLLEVTDAAIEVWGAQRVGVHLAPRADAHDMGDADRAETFTYVARELGKRGIAFICSREREADDSIGPLIKEAFGGPYIVNERFDKASANAALASGKADAVAFGVPFIANPDLPARLAADAPLNEAHPETFYGKGPVGYIDYPRL
As for B2, the “Activity [U/mg protein] 2-cyclohexen-1-one” value is recorded as 0.15 U/mg protein.

B3: NE2398: OYE protein from Nifrosomonas europaea ATCC 19718 (protein)
chain: MLFNPLQVGSLTLPNRILLAPLTRARADAGHMPNALMAEYYSQRATGGLLISECTMVAPGTSAFVNEPGIYNDAQIAAWRQVTDAVHAKGGRIFMQIWHAGRAAYPGAADGAPIVSSSATAIEGEIHTPQGKVPHAVPRPLTVDEIPGIVAAFAQGARNAIAAGFDGVEVHGANGYLIDQFLRDTPNQRTDAYGGSLENRARLLFEVLTAVTQAIGSERVGLRLSPLNSFNSMKDSDPLALIGFLADRLNAFKLAYLHVMRADFFGVQKADVMPVAREKYKGVLVGNMGYSADEAEAAIAEGRLDAVAFGTAFLANPDLPARIRAKAPLNAPDSNTFYAGGAKGYTDYPTLQLA
For the molecule B3, the “Activity [U/mg protein] 2-cyclohexen-1-one” value was determined as 0.19 U/mg protein.

B4: PS4251: OYE protein from Pseudomonas syringae pv. tomato str. DC3000 (protein)
chain: MTTIFDPITLGDLQLPNRIILAPLTRCRADEGRVPNALMSEYYVQRASAGLILTEATSVTPMGVGYPDTPGIWSNDQVRGWSNITQAVHNAGGRIVLQLWHVGRISHPSYLNGETPVAPSAIAAQGHVSLMRPITPLPTPRALELAEIGDIVEAYRVGAENAKAAGFDGVEVHGANGYLLEQFLLTGSNQRTDQYGGSLENRARLLLEVTDAVIDVWGAGRVGVHLSPRFDMHNMSDENRAETFSYVAKELGKRGIAFICARERDAEDSLGPQLKKDFGGVYIANEKFTKDSANAWLAEGKADAFAFGVPYIANPDLPERLASDAPLNEAHPETFYGKGPVGYIDYPRL
For B4, the “Activity [U/mg protein] 2-cyclohexen-1-one” value came to 0.09 U/mg protein.

B5: PP1244: OYE protein from Pseudomonas putida KT2440 (protein)
chain: MSALFEPYTLKDVTLRNRIAIPPMCQYMAEDGMINDWHHVHLAGLARGGAGLLVVEATAVAPEGRITPGCAGIWSDAHAQAFVPVVQAIKAAGSVPGIQIAHAGRKASANRPWEGDDHIAADDARGWETIAPSAIAFGAHLPKVPREMTLDDIARVKQDFVDAARRARDAGFEWIELHFAHGYLGQSFFSEHSNKRTDAYGGSFDNRSRFLLETLAAVREVWPENLPLTARFGVLEYDGRDEQTLEESIELARRFKAGGLDLLSVSVGFTIPDTNIPWGPAFMGPIAERVRREAKLPVTSAWGFGTPQLAEAALQANQLDLVSVGRAHLADPHWAYFAAKELGVEKASWTLPAPYAHWLERYR
B5: the “Activity [U/mg protein] 2-cyclohexen-1-one” value is recorded as 0.25 U/mg protein and the “Activity [U/mg protein] acrolein” value amounted to 0.06 U/mg protein.

B6: PS2358: OYE protein from Pseudomonas syringae pv. tomato str. DC3000 (protein)
chain: MSALFEPFKLKDVTLRNRIAIPPMCQYSAIDGVVNDWHHVHLASMARGGAGLLVVEATAVAPEGRITPGCTGIWNDEQAQAFVPIVKAIKDAGCVPGIQIAHAGRKASANRPWEGDDHIVASDSRGWDTIAPSAIAFGANLPKVPRAMTLDDIARVRQNFVDAARRARDAGFEWIELHFAHGYLGQSFFSEHSNQRTDEYGGSFDNRSRFLLETLAAVREVWPENLPLTARFGVLEYDGRDEQTLTESIELARRFKAGGLDLLSVSVGFSTPDANIPWGPAFMGPIAERVRREAAIPVTSAWGFGEPKLAEEAVKSGQLDLVSIGRAHLADPHWAYFAAKELGVEKSAWTLPAPYAHWLERYR
B6: the “Activity [U/mg protein] 2-cyclohexen-1-one” value is 0.13 U/mg protein.

B7: PS1143: OYE protein from Pseudomonas syringae pv. tomato str. DC3000 (protein)
chain: MSAAALFTPFRLGGLELSSRVVMAPMTRSFSPGHVPNSKVIEYYRRRAAAGVGLIITEGTTVNHPASNGYPNVPQFFGDAPLAGWKKVVDAVHAEGGKIAPQLWHVGAVRRLGTEPDGSIPAYGPMEKVKDGQVLVHGMSKQDIDEVVAAFAQAAADAKAIGMDGVEIHGAHGYLVDQFFWEGSNQRSDEYGGSLANRSRFAIELIKAVRAAVGPDYPIIFRFSQWKQQDYSARLVQTPEALGEFVQPLSDAGVDIFHCSTRRFWEPEFEGSELNLAGWTRKLTGKPTITVGSVGLDGEFLQFMVNTEKVAQPASLENLLERLGKDEFDLVAVGRALLVDPDWAVKVREGREQDILPFSREALTTLV
With B7, the “Activity [U/mg protein] 2-cyclohexen-1-one” value is reported as 0.18 U/mg protein.

B8: PSPH1370: OYE protein from Pseudomonas syringae pv. phaseolicola 1448A (protein)
chain: MSLLLEPYTLRQLTLRNRIAVSPMCQYSSVDGLANDWHLVHLGSRAVGGAGLVITEAMAVTPDGRITPEDLGLWNDEQIEPLQRITRFINAQGAVAGIQLAHAGRKASTWRPWLGKHGSISLNEGGWTPVGPSAIAFDPQHTAPVQLSETQIQELIKAFVDSARRALTAGFKVVEIHAAHGYLLHQFLSPLSNQRTDQYGGSFENRIRLTLQVTEAVRAVWPEELPLFVRVSATDWVEDGWNADETVELARRLKALGTDLIDVSSGGTSANAEIPVGPGYQTRFAERVRKESEIATGTVGMITDPAQAEHILRTGQADIILLARELLRDPYWPLRADEDLGGRLATWPAQYQRATHRDQPIHESDLRD
Turning to B8, the “Activity [U/mg protein] 2-cyclohexen-1-one” value amounted to 0.18 U/mg protein.

B9: PSPH1060: OYE protein from Pseudomonas syringae pv. phaseolicola 1448A (protein)
chain: MSVEALFTPFRLGSLELSSRVVMAPMTRSFSPGHVPNSKVIEYYRRRAAAGVGLIVTEGTTVNHKASNGYPNVPQFFGDAPLAGWRKVVEAVHAEGGKIVPQLWHVGAVRRPGTEPDGSVPAYGPMEKVKDGQVLVHGMSKQDIDDVVAAFAQAAVDAKAIGMDGVEIHGAHGYLIDQFFWEGSNQRSDEYGGSLAKRSRFAIELIKAVRVAVGADYPIIFRFSQWKQQDYTARLVQTPEALGEFLQPLADAGVDIFHCSTRRFWEPEFEGSDLNLAGWTRKLTGKPTITVGSVGLDGEFLQFMVNTDKVAQPASLENLLKRLGNDEFDLVAVGRALLVDPDWALKVREGREQDILPFSREALTTLV
Regarding B9, the “Activity [U/mg protein] 2-cyclohexen-1-one” value is recorded as 0.14 U/mg protein.

B10: PP1466: OYE protein from Pseudomonas putida KT2440 (protein)
chain: MSLLLEPYTLRQLTLPNRIAVSPMCQYSAIDGLANDWHLVHLGCRAVGGAGLVISEAVAVTADGRITAEDLGLWNDDQIVPLQRITRFITAQGAVPGIQLAHAGRKASTYRPWLGKQGSVKLEDGGWQPVGPSKIAFDPQHTPPRELSKDEIQDVIDAFVASTERALKAGFKVVEIHAAHGYLLHQFLSPLSNQRRDEYGSCFENRIRLTLQVVEAVRKVWPAELPLFVRVSATDWVEDGWNPDETVELARRLRVLGVDLIDVSSGGTSVNAEIPTGPGYQTRFAERVRKEAEIATGTVGMITEPAQAEHILRTGQADVIFLARELLRDPYWPLHADDDLGGNKATWPAQYQRATSRANPIHESDLRD
For the molecule B10, the “Activity [U/mg protein] 2-cyclohexen-1-one” value amounted to 0.14 U/mg protein.

B11: PA2932: OYE protein from Pseudomonas aeruginosa PAO1 (protein)
chain: MSNLLLSPLAVGNLALRNRIVMAPMTRSRAQQPGDVPTALNALYYAQRAGAGLIVSEGTQISHLGQGYAYTPGIYSEAQLAGWRQVTEAVHAAGGLIAAQLWHVGRMSHRSLQAGGEAPIAPSPIQAKAQVFIADGQGGGSMAPADAPREMTLEDIRRVRDEFVRAARNALDAGFDLVELHGANGYLIDQFLASASNRRSDAYGGSLENRARFLLEIVDALVAAVGAERVGLRLSPWGTINDMHDDEPEAMTLYLAEALQRRGIAYLHLAEWEWSGGPAYPQGFRERLRERFRAPLIVCGNYDAERAEAILQAGLADAVAIGRPFIANPDLVERIRLGAPLAEANQARFYGGDAAGYTDYPTLGQSATA
For the molecule B11, the “Activity [U/mg protein] 2-cyclohexen-1-one” value came to 13 U/mg protein.

B12: LMO2471: OYE protein from Listeria monocytogenes EGD-e (protein)
chain: MSKLFSEYKLKDVTLKNRIVMSPMCMYSVENKDGIATDFHFAHYVSRAAGGTGLVILEATAVQEVGRISEFDLGLWNDEQVPALKKLVGGLHYHGAKAGIQLAHAGRKAVLPGEIVAPSAIAFDEKSDKPVELTKEAIKEVVADFKRAAYRAKEAGFDVIEIHAAHGYLIHQFLSPITNRREDNYGGPAGNRYKILSDIIKAVKEVWDGPIIVRVSATDYAHGGLQLEDHIPFAKWMKADGVELIDVSTGGLVNVAPPVFPGYQVPFADEIRRGAGIATGALGLITRGEQAEEILCNERADLIIVGRELLRNPYFAKDAAKQLGETIEAPKQYSRAWK
Consider B12, for which the “Activity [U/mg protein] 2-cyclohexen-1-one” value came out at 0.08 U/mg protein.
